Experimental data from the DeepSol protein solubility set.

Test: soluble on expression in E. coli; label from the status in PepcDB or PDB records

| Sequence | soluble on expression in E. coli |
| --- | --- |
| MSLIYLRKANERGHANHGWLDSWHTFSFANYYDPNFMGFSALRVINDDVIEAGQGFGTHPHKDMEILTYVLEGTVEHQDSMGNKEQVPAGEFQIMSAGTGIRHSEYNPSSTERLHLYQIWIMPEENGITPRYEQRRFDAVQGKQLVLSPDARDGSLKVHQDMELYRWALLKDEQSVHQIAAERRVWIQVVKGNVTINGVKASTSDGLAIWDEQAISIHADSDSEVLLFDLPPVEGGSHHHHHH | soluble |
| MRVKGPSSRRKKKKILKLAKGYRGQRSRSYRRAKEAVMRALYYQYRDRKLRKREFRRLWIARINAAVRAYGLNYSTFINGLKKAGIELDRKILADMAVRDPQAFEQVVNKVKEALQVQ | soluble |
| MSLRVENLRSSTYRNGPTGLPNRARFSEDLDAVLLQRTADSAATAIAVDLCGSDYFRDMVKALGWDYADGYVALAYKRLISKLPAGTALYRLDTTTFAFMVTTADPLRLSALCSKISKGFVAPLEHQGIPHTAVASIGAVLLETSYGAADTLRSLTTSVDVAREHCLTWSLYEREGHHHHHH | not soluble |
| IDFRGIEKQGGRVLIDVSDTGIPIDVTQVGKEIVVNFLNTKIPLNLMKRYDVSDFHSPVQIITMQQEGKKVRMTILSKGDYGHFVYQVNKQFMVDVFPLTAEEIR | not soluble |
| MMFGRFTQRAQKVLALSQEEAMRLNHSNLGTEHILLGLVREGEGIAAKALYELGISSEKVQQEVEGLIGHGEKAVTTIQYTPRAKKVIELSMDEARKLGHTYVGTEHILLGLIREGEGVAARVLSNLGISLNKARQQVLQLLGGGDATGAGRQTNTQATPTLDSLARDLTVIAREDNLDPVIGRSKEIQRVIEVLSRRTKNNPVLIGEPGVGKTAIAEGLAQQIVRNEVPETLRGKRVMTLDMGTVVAGTKYRGEFEDRLKKVMDEIRQAGNVILFIDELHTLIGAGGAEGAIDASNILKPPLARGELQCIGATTLDEYRKYIEKDAALERRFQPIKVDEPTVEESIQILHGLRDRYEAHHRVAITDEALEAAVRLSDRYISDRFLPDKAIDVIDESGSKVRLKSFTTPKNVKEMENNLSDLKKEKDAAVQGQEFEKAASLRDKEQKLKKSLEETKANWQEKQGLDHSEVTEDIVAEVVASWTGIPVAKLAETETNKLLNMEKLLHERVIGQDAAVKAVSLAVRRARAGLKDPKRPIGSFIFLGPTGVGKTELARALAESMFGDEDSMIRIDMSEYMEKFSTARLVGAPPGYVGYEEGGQLTEKVRQKPYSVVLLDEIEKAHPDVFNMLLQVLDDGRLTDSKGRVVDFRNTVIIMTSNIGAQEMKQDKSMGFNVTDPLKDHKAMEHRVLQDLKQAFRPEFINRIDETIVFHSLQEKELKQIVTLLTAQLTKRLAERDIHVKLTEGAKSKIAKDGYDPEYGARPLKRAIQKEVEDMLSEELLRGNIKVGDYVEIGVKDGKLEVRKKDAPKKKTTSKKVKAK | not soluble |
| MGSDKIHHHHHHMNKDLKAIKWFITTQILKDPFNPAYATFKVTSRCNLRCTFCSPSYYSGELGEGSTERVKKIIDNLRDSSIVVLSFEGGEPTYRPDILDLLEYAHDGSFYIMLTTNGYRLKDEDFLTKLADKIDFLHYSIDEYHWNVKELENLCRFRKYGLKVNVQTVVTRYNLYKLEEKVRKVAECGYKILAMPAVDYPNSKVKLAPDPYEFYKVLYDLKRKYGSTLNNSWGFINAIIGKVPKRVVSYAITIYPNGDLPYPDDINGEIVGNVAEEPLNKILQSSKVKELQQKMLENQAKFEYLHLQTASFNNIRDLASYVSEMLRWRFTGRA | not soluble |
| MSLRVAVGMSGGVDSSVTALLLKEQGHDVIRVTLRFHTVEACEVNETHNVCCSPKDVQDASRVAKRLGIPHLVFSWEEIFKSKVIDYFVEEYKRGRTPNPCALCNREVKTGFFARYLKQVADIDKLATGHYAKIEEDKKYGLVIKRPKDRKRDQTYFLSLVRREDLELLTFPLGAYTKEEVREIAKRYGLEVAQKRDSQEVCFLMGKSPGEYLEGILGKQRGLIKHVSGKVLGEHEGVYRYTIGQRRGLGISYGKPVYVIDIDAKTNTLIVGEEEYLYNDKLLVKEINFHVPLEKWENVSAQIRYRHKPVPVERIEKTEEGFLVKFKEDVRGITPGQVVAFYDGDVLLGGGIIEESVKEGHHHHHH | soluble |
| MEKIAILVDVQNVYYTCREQYGRHFDYNQFWSQVTQNRTVVKANAYAIASKDPQQRQFHHILRGIGFEVMLKPFIQRSDGSAKGDWDVGIALDGYELAQEVDTVVLVSGDGDFEPLVTRIAQRFQVKVEVYGVPKLTAQHLIDVASQFHPIEHRLLL | not soluble |
| MISDIRKDAEVRMDKCVEAFKTQISKIRTGRASPSLLDGIVVEYYGTPTPLRQLASVTVEDSRTLKINVFDRSMSPAVEKAIMASDLGLNPNSAGSDIRVPLPPLTEERRKDLTKIVRGEAEQARVAVRNVRRDANDKVKALLKDKEISEDDDRRSQDDVQKLTDAAIKKIEAALADKEAELMQF | soluble |
| MIVSAIAANALLESVTKFHCGVIYDYSTAEYVSYRPSDFGAYLDALEAEVARGGLIVFHNGHKYDVPALTKLAKLQLNREFHLPRENCIDTLVLSRLIHSNLKDTDMGLLRSGKLPGKRFGSHALEAWGYRLGEMKGEYKDDFKRMLEEQGEEYVDGMEWWNFNEEMMDYNVQDVVVTKALLEKLLSDKHYFPPEIDFTDVGYTTFWSESLEAVDIEHRAAWLLAKQERNGFPFDTKAIEELYVELAARRSELLRKLTETFGSWYQPKGGTEMFCHPRTGKPLPKYPRIKTPKVGGIFKKPKNKAQREGREPCELDTREYVAGAPYTPVEHVVFNPSSRDHIQKKLQEAGWVPTKYTDKGAPVVDDEVLEGVRVDDPEKQAAIDLIKEYLMIQKRIGQSAEGDKAWLRYVAEDGKIHGSVNPNGAVTGRATHAFPNLAQIPGVRSPYGEQCRAAFGAEHHLDGITGKPWVQAGIDASGLELRCLAHFMARFDNGEYAHEILNGDIHTKNQIAAELPTRDNAKTFIYGFLYGAGDEKIGQIVGAGKERGKELKKKFLENTPAIAALRESIQQTLVESSQWVAGEQQVKWKRRWIKGLDGRKVHVRSPHAALNTLLQSAGALICKLWIIKTEEMLVEKGLKHGWDGDFAYMAWVHDEIQVGCRTEEIAQVVIETAQEAMRWVGDHWNFRCLLDTEGKMGPNWAICH | soluble |
| MTTTLFSSRIIQSALDFDVYKVNMMSAVAALYPDAMVSYKFIVRSEEDLSELLPEVKAEVLKLQDVRFTEDEIAYMKRVAPYLKPEFVEALRHFRFNPQSDVSFHNKTMSDGSSQLRITINGLWKETILYETIIMSIVSEVRSRQRWSDIPFEQFQTVLEDKVRYLKAELERRNITNFKFADMSTRRRFSFQAQRTMLEYLSKELPQCLTGTSNYHLARELDLTPIGTVAHEWFMGHQALVNVRDSQKIALQRWQKMFNGALGIALTDTIGIDAFLKDFDEELSHAYVGVRHDSGCPFTWGEKMIAHYESLGIDPMTKTLVFTDGLNFEQALDICEHFQGRVQVSFGIGTSLANDMGNYVNDQGEAYQPLSIVIKMVTCNGSPVAKISDEPEKAMCEDIFFLMNLKRRFEQPLDLNECRKLIDRLESEGQNYLIDALEHHHHHH | soluble |
| GMKSQWECFLQNLGVWEGSFSNFSPEGTLLNDTSSRLCLEGLNNNQTVRLTLSRSGKDDVIREFRSVGGGLLFFENGSFSEGLIQLGPFSEFGGELAFVHENRRLRLVQLFDRNGHLNGLTLIREHLAGTPVAERPLLQINDLLGEWRGQAVTIYRDLRPPDIYSTTLKIQLDDAGRLMQSTSFGERTITSTATIKGSIVLFDQDPEKQVQVLLLPDGASATSPLKVQLRQPLFLEAGWLIQSDLRQRMIRSYNDKGEWVSLTLVTEERV | soluble |
| MSEKIRVLLYYKYVSIENAQEYAAKHLEFCKSIGLKGRILIADEGINGTVSGDYETTQKYMDWVHSDERFADLWFKIDEENQQAFRKMFVRYKKEIVHLGLEDNNFDSDINPLETTGEYLNPKQFKEALLDEDTVVLDTRNDYEYDLGHFRGAIRPDIRNFRELPQWVRDNKDKFMEKRVVVYCTGGVRCEKFSGWMVREGFKDVGQLHGGIATYGKDPEVQGELWDGAMYVFDDRISVPINHVNPTVISKDYFDGTPCERYVNCANPFCNKQIFASEENETKYVRGCSPECRAHERNRYVQENGLSRQEWAERLEAIGESLPEFVGALEHHHHHH | soluble |
| MSAQKPGLHPRNRHQHRYDLAALCQTTPELTSFLIRTPAGEQSVDFANPQAVKALNKALLAHFYAVTHWDIPPGFLCPPVPGRADYIHHLADLLGETTGSIPAQATILDVGVGANCIYPLIGVHEYGWRFTGSEVSDAAMSSAQAIIQANTGLSRAIRLRRQKDPAAIFTGIIHKNEFYDATLCNPPFHDSAAAARAGSERKRRNLGQNKDDALNFGGQQQELWCEGGEVAFIKKMIAESQTFRRQVLWFTTLVSRGENLPPLYRALTEAGAVKVVKKEMAQGQKQSRFIAWTFMDDDQRRRFITRKRLEHHHHHH | soluble |
| MIRLLTLLALLLPVPGWAGCRQALALGLDVSGSVDGREYRLQLDGLAAALLAPEVQARLLAMPGHPIRLAVYEWSEPGFQRLILPWHQIDTAADLETVAATLRTTRRAAAPPGTAIGPAMHHGAALLAQQPDCWKRTLDLSGDGKHNMGPHPRVVKAALEGSGLTVNALVIGADSTTFTDLRQTQIGELSAYYGAWVILGPDAFVEVALGYEDYQAAMERKLRRELEGLVLSALPTRAATQLHAPVLPWPVLPQAAALEHHHHHH | not soluble |
| MTTALYLEDAYKTSCETEVIKVEGNKVFVKETVFYPTGGGQECDTGVIVQDGSVFEVEKVKKEQGEIVHYIKDEAQVKLGPVKLEINWERRHNLMRHHSLLHLIGAVVYEKYGALCTGNQIYPDKARIDFNELQELSSVEVEEIVEEVNKLIKQNKEISTRYMSREEAENAVGMIKTAINLLPTTIQEIRIVTIENLDEQACGGTHVKNTSEIGTLVIDKVKSKGKQNRRFEVRAI | not soluble |
| MGSDKIHHHHHHMAKPKRRYVCQACGSVTHRWQGQCVDCSEWNTLAEEAPETIFSAKHDLSSGGRRVAFVSLDQPVALPQRRKTGIAEFDRALGGGLVPGCAILMGGDPGIGKSTLLLQASAKVALSGGSAVYISGEEASDQVRLRADRLGLGKAPILLAAATSVRDILTTLGNMEPPSLVVIDSIQTMHSDQIEGAPGTVSQVRGCAFELIRYAKENGVALVLVGHVTKDGSIAGPRVLEHMVDVVMSFEGERSHQYRILRALKNRFGAVDEIGVFAMAGQGLEEVGNPSMLFLSGREQEVPGSAVFPALEGTRPVLVEIQALTVRLASGATPRRAVVGWDSGRLAMLLAVLEARCGLNFSSAEVYLNVAGGYRLTDPAADLAVAAALVSALSDRPLPSGSIWFGEISLAGEVRPVAHTPVRLKEAAKLGFSRGCGPEAGAEKVDGLRYSPLRLLPNLIDRVMGGS | not soluble |
| MSLLSYRHGFHAGNQADVFKHSALFSFLKVYTQKQKPFTAFDLNAGSASYNLLSEWSLKTGEAEEGIIRFLDLYKKEKLPLPIPEGFKAYLDFCLKNYDENSSYAGSPEIIRSFLQKESNLILCDLHSAEAEKLKELYKRVENVHVHKRDCYEAVRALTPPLPIRGFALFDPSYEVDSDYTAIAESVEKVCKKWPIGIFIIWYPILNHKTEECRNLKDRISKAMNNKVLNIEVKHFSNKIDSENEYGLQGSGLLITNPPWGLEEKLKEICEYVEKVSAGLDEGHHHHHH | soluble |
| MAHHHHHHMGDDCETELVEVFGFISSGREDVRKMAVQGLAQQSKDNKELFALIASSAHGPRCIDVLLQFLHAGSVALLGDVLTVLINCAADGTCTEVLVTQKVVRRAMRLIDSVEASDHPQSLQRGLEEMTLMLLSNLTASHVSAVDDLLQVTDEDLRGFYLGKLLTYYTRFTVDDGCSVEVAVAGEQQQEDGGDDNKKLSEGDAVRSNSGGNKSEELNKTVPRDLQRWILQILLNVTRVADGQELLLEDDDWLMALSDCLSSLNPRHRLLAAQCFRNCSFQRERHPGILRSRCLRVCVERLSDGAEHIGEIEMLLAEITANLMQTEAGIGLLEELNAKKHLQASVTAGKVQADTCKFLNEHVLPLLDDIVDAYVMTSGDELD | not soluble |
